For orientation: Kd means the free concentration of one partner at which half of the binding sites on the other are occupied at equilibrium, for simple one-to-one binding.

Positions of bridges follow the written chain, without caps; N, C: chain ends. No end group written: not given here.

Among the data in US20100210517A1 are Kd values, retold here.

The chains are these.
B1: Heptide (peptide)
peptide: CGKHFEAKIEKHNHYQKQLEIAHEKLRHAESVGDAERVSRSREKHALLEGRTKELGYTVKKHLQDACG
modifications: disulfide 1-67 (inferred)
B2: mRAP-8c (peptide)
peptide: CGKHFEAKIEKHNHYQKQLEIAHEKLRHAESVGDGERVSRSREKHALLEGRTKELGYTVKKHLQDGC
modifications: disulfide 1-67 (inferred)
B3: mRAP-14c (peptide)
peptide: CEAKIEKHNHYQKQLEIAHEKLRHAESVGDGERVSRSREKHALLEGRTKELGYTVKKHGC
modifications: disulfide 1-60

Sequence of recombinant human LRP1 ligand binding cluster II (amino acids 786-1165, C-terminal Fc) (human) (Q07954 786-1165): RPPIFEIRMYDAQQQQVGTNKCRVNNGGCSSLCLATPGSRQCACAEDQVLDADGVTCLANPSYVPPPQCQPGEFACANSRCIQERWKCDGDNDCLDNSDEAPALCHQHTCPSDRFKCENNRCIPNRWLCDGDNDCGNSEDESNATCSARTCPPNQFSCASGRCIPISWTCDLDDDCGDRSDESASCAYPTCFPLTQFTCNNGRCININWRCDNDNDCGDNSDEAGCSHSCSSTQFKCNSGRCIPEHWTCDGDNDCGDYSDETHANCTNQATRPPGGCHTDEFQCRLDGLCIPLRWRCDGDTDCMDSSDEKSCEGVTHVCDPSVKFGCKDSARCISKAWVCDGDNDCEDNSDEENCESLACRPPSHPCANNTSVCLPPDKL

The assay has as its target recombinant human LRP1 ligand binding cluster II (amino acids 786-1165, C-terminal Fc) (human). The experiment in a line: solid-phase binding assay, receptor coated on plate.
On to B1, for which the Kd amounted to 3.5 nM.
On to B2, for which the Kd is 4 to 6 nM.
For B3, the Kd was determined as 21 nM.
